The values that follow come from paper PMC12005729.

Common to all, as to assay: native gel or EMSA + other: dynamic light scattering; self-assembly into the 24-mer cage; DLS at 25 °C, 1 µM protein in 50 mM Tris-HCl, pH 8, 150 mM NaCl
Background: A gel shift assay detects complexes by their altered migration in electrophoresis.

Experiment [1] addresses Fr‐F1 (Fr‐R59F), mutant of recombinant horse spleen apo‐L ferritin (horse).
Experiment [2] addresses Fr‐F2 (Fr‐E56F/R59F), mutant of recombinant horse spleen apo‐L ferritin (horse).
Experiment [3] has as its target Fr‐F4 (Fr‐R52F/E56F/R59F/E63F), mutant of recombinant horse spleen apo‐L ferritin (horse).
Experiment [4] deals with Fr‐F5/59A (Fr‐E53F/E56F/E57F/R59A/E60F/E63F), mutant of recombinant horse spleen apo‐L ferritin (horse).
Experiment [5] concerns the target Fr‐F5/59L (Fr‐E53F/E56F/E57F/R59L/E60F/E63F), mutant of recombinant horse spleen apo‐L ferritin (horse).
Experiment [6] addresses Fr‐F6 (Fr‐E53F/E56F/E57F/R59F/E60F/E63F), mutant of recombinant horse spleen apo‐L ferritin (horse).

Turning to “Fr‐F1 (Fr‐R59F), mutant of recombinant horse spleen apo‐L ferritin (natural protein)”, the stoichiometry N in experiment [1] was determined as 24.
With “Fr‐F2 (Fr‐E56F/R59F), mutant of recombinant horse spleen apo‐L ferritin (natural protein)”, the stoichiometry N in experiment [2] was 24.
In the case of “Fr‐F4 (Fr‐R52F/E56F/R59F/E63F), mutant of recombinant horse spleen apo‐L ferritin (natural protein)”, in experiment [3], the stoichiometry N was 24.
Turning to “Fr‐F5/59A (Fr‐E53F/E56F/E57F/R59A/E60F/E63F), mutant of recombinant horse spleen apo‐L ferritin (natural protein)”, in experiment [4], the stoichiometry N amounted to 24.
With “Fr‐F5/59L (Fr‐E53F/E56F/E57F/R59L/E60F/E63F), mutant of recombinant horse spleen apo‐L ferritin (natural protein)”, the stoichiometry N in experiment [5] was 24.
On to “Fr‐F6 (Fr‐E53F/E56F/E57F/R59F/E60F/E63F), mutant of recombinant horse spleen apo‐L ferritin (natural protein)”, for which the stoichiometry N in experiment [6] was determined as 24.

As usually defined, the stoichiometry N is the number of molecules, sites or subunits per partner or assembly.
